Reference: the supplement of paper PMC9112550, “Optimization of the antimicrobial peptide Bac7 by deep mutational scanning” (BMC Biology, 2022)

System: Escherichia coli TOP10
Test: shrunken log2 fold change of peptide-encoding DNA abundance (4.5 h post-induction vs induction); higher = less antimicrobial activity (less host growth inhibition)
Conditions: time post-induction: 4.5 h; library: site-saturation at positions 5, 18, 19, 20
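Also: peptides expressed intracellularly from a pBAD plasmid library in pooled LB shake-flask culture, induced with 0.3% L-arabinose, DNA abundance read by NGS, three biological replicates, DESeq2 with apeglm shrinkage.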

Sequence | shrunken log2 fold change
RRIRMRPPRLPRPRPRPAFLPRP | 0.175
RRIRMRPPRLPRPRPRPAFQPRP | 0.0845
RRIRMRPPRLPRPRPRPAGIPRP | -0.000742
RRIRMRPPRLPRPRPRPAHIPRP | -0.161
RRIRMRPPRLPRPRPRPAIHPRP | 0.156
RRIRMRPPRLPRPRPRPAINPRP | 0.321
RRIRMRPPRLPRPRPRPAIQPRP | -0.00069
RRIRMRPPRLPRPRPRPAKFPRP | 0.0548
RRIRMRPPRLPRPRPRPAKRPRP | 1.21
RRIRMRPPRLPRPRPRPALIPRP | 0.136
RRIRMRPPRLPRPRPRPALYPRP | 0.765
RRIRMRPPRLPRPRPRPANEPRP | 0.182
RRIRMRPPRLPRPRPRPANHPRP | 0.0312
RRIRMRPPRLPRPRPRPANIPRP | -0.0889
RRIRMRPPRLPRPRPRPAQTPRP | 0.00383
RRIRMRPPRLPRPRPRPASIPRP | -0.015
RRIRMRPPRLPRPRPRPATAPRP | 1.17
RRIRMRPPRLPRPRPRPATIPRP | 0.23
RRIRMRPPRLPRPRPRPAWCPRP | 3.93
RRIRMRPPRLPRPRPRPAWGPRP | 0.81
RRIRMRPPRLPRPRPRPAYLPRP | 0.0142
RRIRMRPPRLPRPRPRPCANPRP | -0.0263
RRIRMRPPRLPRPRPRPCCAPRP | 0.78
RRIRMRPPRLPRPRPRPCCGPRP | 0.215
RRIRMRPPRLPRPRPRPCCQPRP | 0.212

Sequence | shrunken log2 fold change
RRIRMRPPRLPRPRPRPCDIPRP | -0.151
RRIRMRPPRLPRPRPRPCETPRP | -0.263
RRIRMRPPRLPRPRPRPCFAPRP | 0.431
RRIRMRPPRLPRPRPRPCKEPRP | -0.00822
RRIRMRPPRLPRPRPRPCKVPRP | -0.0465
RRIRMRPPRLPRPRPRPCKYPRP | -0.0297
RRIRMRPPRLPRPRPRPCLEPRP | 0.126
RRIRMRPPRLPRPRPRPCMFPRP | -0.038
RRIRMRPPRLPRPRPRPCMSPRP | -0.00161
RRIRMRPPRLPRPRPRPCQWPRP | -0.152
RRIRMRPPRLPRPRPRPCRYPRP | 0.11
RRIRMRPPRLPRPRPRPCSLPRP | -0.0103
RRIRMRPPRLPRPRPRPCTAPRP | 0.191
RRIRMRPPRLPRPRPRPCTCPRP | 0.0043
RRIRMRPPRLPRPRPRPCTTPRP | 0.104
RRIRMRPPRLPRPRPRPCTVPRP | -0.0102
RRIRMRPPRLPRPRPRPCTWPRP | -0.0287
RRIRMRPPRLPRPRPRPCVFPRP | -0.065
RRIRMRPPRLPRPRPRPCVLPRP | -2.47e-05
RRIRMRPPRLPRPRPRPCVNPRP | -0.111
RRIRMRPPRLPRPRPRPCWNPRP | 0.236
RRIRMRPPRLPRPRPRPCWWPRP | 0.0436
RRIRMRPPRLPRPRPRPCYQPRP | 2.31
RRIRMRPPRLPRPRPRPCYTPRP | -0.0524
RRIRMRPPRLPRPRPRPDAKPRP | 0.937

Sequence | shrunken log2 fold change
RRIRMRPPRLPRPRPRPDCVPRP | 1.71
RRIRMRPPRLPRPRPRPDCWPRP | 1.96
RRIRMRPPRLPRPRPRPDDNPRP | 2.27
RRIRMRPPRLPRPRPRPDDWPRP | 3.03
RRIRMRPPRLPRPRPRPDFGPRP | 0.0563
RRIRMRPPRLPRPRPRPDGQPRP | 1.15
RRIRMRPPRLPRPRPRPDHIPRP | -0.000611
RRIRMRPPRLPRPRPRPDIVPRP | 0.0138
RRIRMRPPRLPRPRPRPDKNPRP | 0.373
RRIRMRPPRLPRPRPRPDMKPRP | 0.182
RRIRMRPPRLPRPRPRPDNCPRP | 0.00157
RRIRMRPPRLPRPRPRPDPFPRP | 0.0255
RRIRMRPPRLPRPRPRPDPKPRP | -0.000946
RRIRMRPPRLPRPRPRPDRLPRP | 0.55
RRIRMRPPRLPRPRPRPDTHPRP | 0.18
RRIRMRPPRLPRPRPRPDYCPRP | -0.369
RRIRMRPPRLPRPRPRPDYLPRP | -0.051
RRIRMRPPRLPRPRPRPEAGPRP | 2.36
RRIRMRPPRLPRPRPRPECFPRP | 1.35
RRIRMRPPRLPRPRPRPEEGPRP | 0.0237
RRIRMRPPRLPRPRPRPEENPRP | 3.95
RRIRMRPPRLPRPRPRPEHKPRP | 2.5
RRIRMRPPRLPRPRPRPEKAPRP | 1.52
RRIRMRPPRLPRPRPRPELSPRP | 0.0644
RRIRMRPPRLPRPRPRPEMKPRP | 2.5

Sequence | shrunken log2 fold change
RRIRMRPPRLPRPRPRPEPCPRP | 1.13
RRIRMRPPRLPRPRPRPEQVPRP | 0.493
RRIRMRPPRLPRPRPRPEQYPRP | 0.282
RRIRMRPPRLPRPRPRPESKPRP | 2.93
RRIRMRPPRLPRPRPRPETCPRP | 1.67
RRIRMRPPRLPRPRPRPETRPRP | 0.925
RRIRMRPPRLPRPRPRPEYMPRP | -0.00213
RRIRMRPPRLPRPRPRPEYVPRP | 0.16
RRIRMRPPRLPRPRPRPFANPRP | -0.0062
RRIRMRPPRLPRPRPRPFASPRP | 0.0812
RRIRMRPPRLPRPRPRPFCEPRP | 0.148
RRIRMRPPRLPRPRPRPFCYPRP | -0.117
RRIRMRPPRLPRPRPRPFDFPRP | 0.0495
RRIRMRPPRLPRPRPRPFDKPRP | -0.0136
RRIRMRPPRLPRPRPRPFGKPRP | 0.129
RRIRMRPPRLPRPRPRPFHHPRP | -0.419
RRIRMRPPRLPRPRPRPFHYPRP | -0.63
RRIRMRPPRLPRPRPRPFINPRP | -0.278
RRIRMRPPRLPRPRPRPFKAPRP | -0.114
RRIRMRPPRLPRPRPRPFKWPRP | -0.0704
RRIRMRPPRLPRPRPRPFLHPRP | -0.0137
RRIRMRPPRLPRPRPRPFLMPRP | -0.0208
RRIRMRPPRLPRPRPRPFPCPRP | -0.0872
RRIRMRPPRLPRPRPRPFQPPRP | 0.0604
RRIRMRPPRLPRPRPRPFRIPRP | 0.0254

Sequence | shrunken log2 fold change
RRIRMRPPRLPRPRPRPFRYPRP | 0.0191
RRIRMRPPRLPRPRPRPFSQPRP | -0.0398
RRIRMRPPRLPRPRPRPFTQPRP | 0.215
RRIRMRPPRLPRPRPRPFTTPRP | -0.0216
RRIRMRPPRLPRPRPRPFYGPRP | 0.0715
RRIRMRPPRLPRPRPRPGDWPRP | 1.33
RRIRMRPPRLPRPRPRPGDYPRP | 0.0762
RRIRMRPPRLPRPRPRPGEKPRP | 0.00581
RRIRMRPPRLPRPRPRPGESPRP | 1.29
RRIRMRPPRLPRPRPRPGFPPRP | 0.446
RRIRMRPPRLPRPRPRPGHGPRP | 0.32
RRIRMRPPRLPRPRPRPGISPRP | 0.0451
RRIRMRPPRLPRPRPRPGKVPRP | 0.101
RRIRMRPPRLPRPRPRPGLGPRP | 0.914
RRIRMRPPRLPRPRPRPGQMPRP | 0.123
RRIRMRPPRLPRPRPRPGQWPRP | 0.204
RRIRMRPPRLPRPRPRPGSEPRP | 0.952
RRIRMRPPRLPRPRPRPGSGPRP | 1.34
RRIRMRPPRLPRPRPRPGYSPRP | -0.185
RRIRMRPPRLPRPRPRPGYVPRP | -0.118
RRIRMRPPRLPRPRPRPHANPRP | 0.0143
RRIRMRPPRLPRPRPRPHASPRP | 0.116
RRIRMRPPRLPRPRPRPHATPRP | 2.78
RRIRMRPPRLPRPRPRPHDIPRP | -0.104
RRIRMRPPRLPRPRPRPHFGPRP | 0.0712

Sequence | shrunken log2 fold change
RRIRMRPPRLPRPRPRPHFQPRP | 0.22
RRIRMRPPRLPRPRPRPHGDPRP | -0.0284
RRIRMRPPRLPRPRPRPHHMPRP | -0.321
RRIRMRPPRLPRPRPRPHIEPRP | -0.0375
RRIRMRPPRLPRPRPRPHIHPRP | -0.111
RRIRMRPPRLPRPRPRPHIMPRP | -0.422
RRIRMRPPRLPRPRPRPHISPRP | -0.0571
RRIRMRPPRLPRPRPRPHMCPRP | 0.000241
RRIRMRPPRLPRPRPRPHMIPRP | -0.159
RRIRMRPPRLPRPRPRPHNFPRP | -0.0303
RRIRMRPPRLPRPRPRPHNHPRP | -0.239
RRIRMRPPRLPRPRPRPHNKPRP | -0.305
RRIRMRPPRLPRPRPRPHPVPRP | 0.0384
RRIRMRPPRLPRPRPRPHPYPRP | 0.168
RRIRMRPPRLPRPRPRPHQDPRP | -0.117
RRIRMRPPRLPRPRPRPHQIPRP | -0.00201
RRIRMRPPRLPRPRPRPHRKPRP | 0.0879
RRIRMRPPRLPRPRPRPHRTPRP | -0.177
RRIRMRPPRLPRPRPRPHRWPRP | 0.478
RRIRMRPPRLPRPRPRPHTYPRP | -0.209
RRIRMRPPRLPRPRPRPHWVPRP | -0.0142
RRIRMRPPRLPRPRPRPHYAPRP | -0.128
RRIRMRPPRLPRPRPRPHYIPRP | -0.335
RRIRMRPPRLPRPRPRPIAEPRP | 3.46
RRIRMRPPRLPRPRPRPIAHPRP | -0.0202
